Patent publication US20260166139A1
Values joined by “and” are separate entries in the source; they are usually repeats but may differ in a detail not shown here. Equal values may be shown once.

What was measured:
human CTLA4 (human) [1] = molecular target: human CTLA4 (human) (UniProt P16410); assay: ELISA, coat CTLA4 0.5 ug/ml; antibody 1 ug/ml
human CTLA4 (human) [2] = molecular target: human CTLA4 (human) (UniProt P16410); assay: ELISA, coat CTLA4 0.5 ug/ml; antibody 0 (blank)
human CTLA4 (human) [3] = molecular target: human CTLA4 (human) (UniProt P16410); assay: ELISA, coat human CTLA4 0.5 ug/ml; antibody 1 ug/ml
human CTLA4 (human) [4] = molecular target: human CTLA4 (human) (UniProt P16410); assay: as above; remark: listed apart in the source
human CTLA4 (human) [5] = molecular target: human CTLA4 (human) (UniProt P16410); assay: ELISA on coated CTLA4, source Human (row of 8D2H3L3)
human CTLA4 (human) [6] = molecular target: human CTLA4 (human) (UniProt P16410); assay: ELISA on coated CTLA4, source Human (row of 8D2H2L15)
human CTLA4 (human) [7] = molecular target: human CTLA4 (human) (UniProt P16410); assay: ELISA on coated CTLA4, source Human (row of 8D2H2L17)
[8] = molecular target: monkey CTLA4-hFc (monkey); assay: ELISA, coat monkey CTLA4-hFc 0.25 ug/ml; antibody 1 ug/ml
[9] = molecular target: monkey CTLA4-hFc (monkey); assay: ELISA, coat monkey CTLA4-hFc 0.25 ug/ml; antibody 0 (blank)
human CTLA4 (human) [10] = molecular target: human CTLA4 (human) (UniProt P16410); assay: ELISA, coat CTLA4 0.5 ug/ml; antibody 1:243 (start 1 ug/ml)
human CTLA4 (human) [11] = molecular target: human CTLA4 (human) (UniProt P16410); assay: ELISA, coat CTLA4 0.5 ug/ml; antibody 1:729 (start 1 ug/ml)
CTLA4-mFc [12] = assay: competitive ELISA, competitor B7-1; control run with 8D2H3L3
Sequence of CTLA4-mFc (chain, as listed by the source limits assumed): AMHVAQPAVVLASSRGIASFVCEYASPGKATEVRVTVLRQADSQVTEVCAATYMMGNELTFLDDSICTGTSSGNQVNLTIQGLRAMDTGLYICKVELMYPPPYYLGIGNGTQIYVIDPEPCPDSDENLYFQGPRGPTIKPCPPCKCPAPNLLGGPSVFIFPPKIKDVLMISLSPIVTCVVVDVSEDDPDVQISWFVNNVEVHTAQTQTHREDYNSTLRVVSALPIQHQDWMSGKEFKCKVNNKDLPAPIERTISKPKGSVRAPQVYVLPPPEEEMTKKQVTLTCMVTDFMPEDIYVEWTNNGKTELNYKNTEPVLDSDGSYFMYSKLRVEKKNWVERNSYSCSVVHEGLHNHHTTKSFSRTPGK

CTLA4-mFc [13] = assay: competitive ELISA, competitor B7-2; control run with 8D2H1L1
CTLA4-mFc [14] = assay: competitive ELISA, competitor B7-2; control run with 8D2H3L3
CTLA4-mFc [15] = assay: competitive ELISA, competitor B7-1; control run with 8D2H2L15
human CTLA4 (human) [16] = molecular target: human CTLA4 (human) (UniProt P16410); assay: ELISA, coat human CTLA4 0.5 ug/ml; antibody 1:27 (start 1 ug/ml)
human CTLA4 (human) [17] = molecular target: human CTLA4 (human) (UniProt P16410); assay: ELISA, coat human CTLA4 0.5 ug/ml; antibody 1:243 (start 1 ug/ml)
human CTLA4 (human) [18] = molecular target: human CTLA4 (human) (UniProt P16410); assay: as above; remark: listed apart in the source
[19] = molecular target: monkey CTLA4-hFc (monkey); assay: ELISA, coat monkey CTLA4-hFc 0.25 ug/ml; antibody 1:27 (start 1 ug/ml)
[20] = molecular target: monkey CTLA4-hFc (monkey); assay: ELISA, coat monkey CTLA4-hFc 0.25 ug/ml; antibody 1:81 (start 1 ug/ml)
CTLA4-mFc [21] = assay: competitive ELISA, CTLA4-mFc coated, competitor B7/2-His; antibody 3 µg/ml
CTLA4-mFc [22] = assay: competitive ELISA, CTLA4-mFc coated, competitor B7/2-His; antibody 1.5 µg/ml
CTLA4-mFc [23] = assay: competitive ELISA, B7/1-hFc coated (competitor), CTLA4-mFc added; antibody 5 µg/ml
CTLA4-mFc [24] = assay: competitive ELISA, CTLA4-mFc coated, competitor B7/2-His; antibody 0 (no antibody)
CTLA4-mFc [25] = assay: competitive ELISA, CTLA4-mFc coated, competitor B7/2-His; antibody 3 µg/ml diluted 1:3
CTLA4-mFc [26] = assay: competitive ELISA, CTLA4-mFc coated, competitor B7/2-His; antibody 3 µg/ml diluted 1:81
CTLA4-mFc [27] = assay: competitive ELISA, CTLA4-mFc coated, competitor B7/2-His; antibody 3 µg/ml diluted 1:243
CTLA4-mFc [28] = assay: competitive ELISA, CTLA4-mFc coated, competitor B7/2-His; antibody 1 µg/ml diluted 1:729
CTLA4-mFc [29] = assay: competitive ELISA, CTLA4-mFc coated, competitor B7/2-His; antibody 1.5 µg/ml diluted 1:81
CTLA4-mFc [30] = assay: competitive ELISA, B7/1-hFc coated (competitor), CTLA4-mFc added; antibody 0 (no antibody)
CTLA4-mFc [31] = assay: competitive ELISA, B7/1-hFc coated (competitor), CTLA4-mFc added; antibody 5 µg/ml diluted 1:3
CTLA4-mFc [32] = assay: competitive ELISA, B7/1-hFc coated (competitor), CTLA4-mFc added; antibody 5 µg/ml diluted 1:81
CTLA4-mFc [33] = assay: competitive ELISA, B7/1-hFc coated (competitor), CTLA4-mFc added; antibody 5 µg/ml diluted 1:243
CTLA4-mFc [34] = assay: competition ELISA, coat B7/1-hFc 0.2 ug/ml (competitor), CTLA4-mFc 0.3 ug/ml detected; antibody 3 ug/ml
CTLA4-mFc [35] = assay: competition ELISA, coat B7/1-hFc 0.2 ug/ml (competitor), CTLA4-mFc 0.3 ug/ml detected; antibody 0 (no antibody)
CTLA4-mFc [36] = assay: competition ELISA, coat B7/1-hFc 0.2 ug/ml (competitor), CTLA4-mFc 0.3 ug/ml detected; antibody 1:3 (start 3 ug/ml)
CTLA4-mFc [37] = assay: competition ELISA, coat B7/1-hFc 0.2 ug/ml (competitor), CTLA4-mFc 0.3 ug/ml detected; antibody 1:9 (start 3 ug/ml)
CTLA4-mFc [38] = assay: competition ELISA, coat B7/1-hFc 0.2 ug/ml (competitor), CTLA4-mFc 0.3 ug/ml detected; antibody 1:729 (start 3 ug/ml)

Sequence of control antibody 11.2.1 (VH): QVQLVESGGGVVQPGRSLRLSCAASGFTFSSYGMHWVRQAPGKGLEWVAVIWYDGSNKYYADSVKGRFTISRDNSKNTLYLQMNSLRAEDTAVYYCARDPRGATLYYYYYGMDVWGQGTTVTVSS
Sequence of control antibody 11.2.1 (VL): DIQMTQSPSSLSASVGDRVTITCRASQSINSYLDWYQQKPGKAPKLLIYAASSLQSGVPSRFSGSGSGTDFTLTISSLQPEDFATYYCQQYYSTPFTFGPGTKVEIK
Sequence of human CTLA4 (human) (P16410 36-161 limits assumed): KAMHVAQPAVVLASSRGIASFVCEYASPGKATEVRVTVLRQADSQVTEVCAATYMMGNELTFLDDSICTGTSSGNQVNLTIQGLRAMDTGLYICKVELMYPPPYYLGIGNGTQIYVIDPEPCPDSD

absorbance at 450 nm (human CTLA4 (human) [1]): 2.75 and 2.69
absorbance at 450 nm (human CTLA4 (human) [2]): 0.05
absorbance at 450 nm (human CTLA4 (human) [3]): 3.58 and 3.55
absorbance at 450 nm (human CTLA4 (human) [4]): 2.21 and 2.15
EC50 (human CTLA4 (human) [5]): 0.09 nM
EC50 (human CTLA4 (human) [6]): 0.075 nM
EC50 (human CTLA4 (human) [7]): 0.075 nM
absorbance at 450 nm [8]: 1.72 and 1.63
absorbance at 450 nm [9]: 0.048 and 0.051
absorbance at 450 nm (human CTLA4 (human) [10]): 0.75 and 0.79
absorbance at 450 nm (human CTLA4 (human) [11]): 0.32 and 0.31
EC50 (CTLA4-mFc [12]): 1.07 nM
EC50 (CTLA4-mFc [13]): 0.15 nM
EC50 (CTLA4-mFc [14]): 0.172 nM
EC50 (CTLA4-mFc [15]): 2.61 nM
absorbance at 450 nm (human CTLA4 (human) [16]): 2.34 and 2.29
absorbance at 450 nm (human CTLA4 (human) [17]): 0.536 and 0.552
absorbance at 450 nm (human CTLA4 (human) [18]): 0.223 and 0.219
absorbance at 450 nm [19]: 0.625 and 0.665
absorbance at 450 nm [20]: 0.297 and 0.313
absorbance at 450 nm (CTLA4-mFc [21]): 0.492 and 0.442
absorbance at 450 nm (CTLA4-mFc [22]): 0.372 and 0.494
absorbance at 450 nm (CTLA4-mFc [23]): 0.08 and 0.089
absorbance at 450 nm (CTLA4-mFc [24]): 0.987 and 0.819
absorbance at 450 nm (CTLA4-mFc [25]): 0.387 and 0.402
absorbance at 450 nm (CTLA4-mFc [26]): 1.12 and 0.965
absorbance at 450 nm (CTLA4-mFc [27]): 1.24 and 1.21
absorbance at 450 nm (CTLA4-mFc [28]): 0.87 and 0.85
absorbance at 450 nm (CTLA4-mFc [29]): 0.805 and 0.649
absorbance at 450 nm (CTLA4-mFc [30]): 0.683 and 0.735
absorbance at 450 nm (CTLA4-mFc [31]): 0.08
absorbance at 450 nm (CTLA4-mFc [32]): 0.698 and 0.66
absorbance at 450 nm (CTLA4-mFc [33]): 0.755 and 0.9
absorbance at 450 nm (CTLA4-mFc [34]): 0.101 and 0.105
absorbance at 450 nm (CTLA4-mFc [35]): 0.826 and 0.55
absorbance at 450 nm (CTLA4-mFc [36]): 0.119 and 0.133
absorbance at 450 nm (CTLA4-mFc [37]): 0.381 and 0.485
absorbance at 450 nm (CTLA4-mFc [38]): 0.993 and 0.841
Substance: control antibody 11.2.1
